Target: Gallus gallus NET1ΔC loop cd (R374A H375A K395A H399A R400A K401A) (Gallus gallus, UniProt Q90922 26-458, R374A | H375A | K395A | H399A | R400A | K401A)
Assay: ELISA; glypican-3 coated (0.5 µg/well); soluble NET1ΔC alone (0.5–500 nM, or 500 nM pre-incubated with HO-dp20 for competition); detection with polyclonal NET1 antibody
Conditions: both partners purified

binding result: binds
B1: glypican-3 (AF185614 aa 25-557 R357A) (domain or fragment)
chain: QPPPPPDATCHQVRSFFQRLQPGLKWVPETPVPGSDLQVCLPKGPTCCSRKMEEKYQLTARLNMEQLLQSASMELKFLIIQNAAVFQEAFEIVVRHAKNYTNAMFKNNYPSLTPQAFEFVGEFFTDVSLYILGSDINVDDMVNELFDSLFPVIYTQMMNPGLPESVLDINECLRGARRDLKVFGSFPKLIMTQVSKSLQVTRIFLQALNLGIEVINTTDHLKFSKDCGRMLTRMWYCSYCQGLMMVKPCGGYCNVVMQGCMAGVVEIDKYWREYILSLEELVNGMYRIYDMENVLLGLFSTIHDSIQYVQKNGGKLTTTIGKLCAHSQQRQYASAYYPEDLFIDKKILKVAHVEHEETLSSRRRELIQKLKSFINFYSALPGYICSHSPVAENDTLCWNGQELVERYSQKAARNGMKNQFNLHELKMKGPEPVVSQIIDKLKHINQLLRTMSVPKGKVLDKSLDEEGLESGDCGDDEDECIGSSGDGMVKVKNQLRFLAELAYDLDVDDAPGNKQHGNQKDNEITTSHSVGNM
modifications: three extended GAG chains are attached to the core protein
notes: Glypican-3, AF185614 aa 25-557; Heparan sulphate proteoglycan; also called GPC3; source: HEK 293 (sleeping beauty transposon system, BM40 signal peptide), purified (Strep-Tactin)

— article PMC9984387, “The dynamic nature of netrin-1 and the structural basis for glycosaminoglycan fragment-induced filament formation” (Nature Communications, 2023)
